This is an account of results in patent US20200057047A1 (NATIONAL HEALTH RESEARCH INSTITUTES, published 2020).

The target of experiment [1] is T1, GLK (MAP4K3) (transfected; construct of the ALPHA assay with AhR not stated) (UniProt Q8IVH8 1-894, limits assumed).
T1 construct: Expression plasmid 'reported previously'
T1 sequence (looked up): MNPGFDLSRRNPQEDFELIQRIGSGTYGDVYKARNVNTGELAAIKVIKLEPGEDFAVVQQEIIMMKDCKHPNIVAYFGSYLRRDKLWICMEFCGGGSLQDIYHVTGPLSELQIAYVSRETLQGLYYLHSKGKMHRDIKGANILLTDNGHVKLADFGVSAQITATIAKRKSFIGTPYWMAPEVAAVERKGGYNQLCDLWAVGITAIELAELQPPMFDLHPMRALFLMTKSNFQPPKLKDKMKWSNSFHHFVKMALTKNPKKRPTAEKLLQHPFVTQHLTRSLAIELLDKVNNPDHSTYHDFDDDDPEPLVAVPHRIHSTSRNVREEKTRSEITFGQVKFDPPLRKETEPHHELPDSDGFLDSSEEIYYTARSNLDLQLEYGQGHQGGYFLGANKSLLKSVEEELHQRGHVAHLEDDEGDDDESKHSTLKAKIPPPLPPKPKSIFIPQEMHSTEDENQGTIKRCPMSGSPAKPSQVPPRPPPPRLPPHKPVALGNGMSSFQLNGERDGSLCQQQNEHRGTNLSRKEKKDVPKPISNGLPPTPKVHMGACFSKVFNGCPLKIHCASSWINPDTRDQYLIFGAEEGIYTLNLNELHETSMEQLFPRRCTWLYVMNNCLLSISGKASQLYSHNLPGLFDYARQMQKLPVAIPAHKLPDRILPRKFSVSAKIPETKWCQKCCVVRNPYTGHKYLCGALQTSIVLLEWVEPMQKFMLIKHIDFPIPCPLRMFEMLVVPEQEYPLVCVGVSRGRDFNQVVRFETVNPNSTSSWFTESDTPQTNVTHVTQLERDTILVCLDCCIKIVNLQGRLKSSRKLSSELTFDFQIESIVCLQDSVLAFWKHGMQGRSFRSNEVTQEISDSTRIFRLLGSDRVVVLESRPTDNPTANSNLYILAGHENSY
The experiment is described as follows: ALPHA protein-protein interaction assay.

Experiment [2] concerns the target T2, AhR, endogenous, human peripheral blood T cells (SLE and RA patients) (human, UniProt P35869 11-848, limits assumed).
T2 sequence (looked up): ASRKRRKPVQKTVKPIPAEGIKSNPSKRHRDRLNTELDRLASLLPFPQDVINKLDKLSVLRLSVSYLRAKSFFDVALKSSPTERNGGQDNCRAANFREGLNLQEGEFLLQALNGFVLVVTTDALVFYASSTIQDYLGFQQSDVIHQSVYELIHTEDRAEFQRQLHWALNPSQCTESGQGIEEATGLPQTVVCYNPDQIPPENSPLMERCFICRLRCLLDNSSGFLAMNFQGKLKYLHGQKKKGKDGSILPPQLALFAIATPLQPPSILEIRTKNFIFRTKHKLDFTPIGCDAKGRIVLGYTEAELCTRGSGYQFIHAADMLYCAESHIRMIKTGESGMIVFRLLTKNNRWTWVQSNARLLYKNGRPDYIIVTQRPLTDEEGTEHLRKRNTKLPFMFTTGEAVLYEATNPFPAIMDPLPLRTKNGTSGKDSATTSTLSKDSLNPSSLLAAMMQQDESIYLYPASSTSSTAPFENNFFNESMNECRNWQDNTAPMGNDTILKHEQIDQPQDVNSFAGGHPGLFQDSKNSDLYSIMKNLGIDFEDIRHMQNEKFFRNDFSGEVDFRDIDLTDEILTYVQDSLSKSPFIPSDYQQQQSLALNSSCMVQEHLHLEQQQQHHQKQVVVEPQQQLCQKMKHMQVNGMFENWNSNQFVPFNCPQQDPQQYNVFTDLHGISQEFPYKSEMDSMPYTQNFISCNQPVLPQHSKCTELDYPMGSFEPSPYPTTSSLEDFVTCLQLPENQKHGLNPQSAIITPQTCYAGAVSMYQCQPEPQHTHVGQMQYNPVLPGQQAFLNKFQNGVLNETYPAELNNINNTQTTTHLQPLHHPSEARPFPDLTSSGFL
The experiment can be described thus: in situ PLA, human peripheral blood T cells (FIG. 8C).

Experiment [3] concerns the target IQGAP1, endogenous, human NSCLC tissues (human, UniProt P46940 2-1657). The experiment is described as follows: in situ PLA with probes for GLK and IQGAP1, human NSCLC tissue sections (FIGS. 21A-B). The source says:
These tissues were subjected to in situ proximity ligation assay (PLA) with a combination of paired PLA probes corresponding to GLK and IQGAP1. […] The few PLA signals in the normal adjacent tissues of NSCLC patients may be metastatic cancer cells migrating from original lesion. […] Next, we studied whether the GLK−IQGAP1 complex could act as a potential prognostic biomarker for NSCLCs. NSCLC (squamous cell carcinoma and adenocarcinoma) patients, whose survival data were available, were divided into four PLA-signal subgroups after cluster analyses. The two subgroups with highest PLA signals contained only one and two patients, respectively, thus, these two subgroups were excluded from further analysis. The remaining two subgroups (n=63) were subjected to Kaplan-Meier survival analysis using the survival data (available from the provider). […] The higher P value (P=0.069) may be due to the exclusion of three data with highest PLA signals. Nevertheless, NSCLC patients with more GLK−IQGAP1 complexes have a lower survival rate than that of the patients with less GLK−IQGAP1 complexes. Because 40% to 60% of NSCLC patients the of cancer recurrence after cancer resection, we studied whether the GLK−IQGAP1 complex is associated with NSCLC metastasis. […]

For experiment [4], the target named is IQGAP1, endogenous, lung tissues of mice in the LLC/luc metastatic lung cancer model (mouse, UniProt Q9JKF1 2-1657). The experiment is described as follows: in situ PLA, lung tissues of the LLC/luc mouse model (FIG. 16H, upper panel).
Chain of IQGAP1, endogenous, lung tissues of mice in the LLC/luc metastatic lung cancer model (Q9JKF1 2-1657 limits assumed): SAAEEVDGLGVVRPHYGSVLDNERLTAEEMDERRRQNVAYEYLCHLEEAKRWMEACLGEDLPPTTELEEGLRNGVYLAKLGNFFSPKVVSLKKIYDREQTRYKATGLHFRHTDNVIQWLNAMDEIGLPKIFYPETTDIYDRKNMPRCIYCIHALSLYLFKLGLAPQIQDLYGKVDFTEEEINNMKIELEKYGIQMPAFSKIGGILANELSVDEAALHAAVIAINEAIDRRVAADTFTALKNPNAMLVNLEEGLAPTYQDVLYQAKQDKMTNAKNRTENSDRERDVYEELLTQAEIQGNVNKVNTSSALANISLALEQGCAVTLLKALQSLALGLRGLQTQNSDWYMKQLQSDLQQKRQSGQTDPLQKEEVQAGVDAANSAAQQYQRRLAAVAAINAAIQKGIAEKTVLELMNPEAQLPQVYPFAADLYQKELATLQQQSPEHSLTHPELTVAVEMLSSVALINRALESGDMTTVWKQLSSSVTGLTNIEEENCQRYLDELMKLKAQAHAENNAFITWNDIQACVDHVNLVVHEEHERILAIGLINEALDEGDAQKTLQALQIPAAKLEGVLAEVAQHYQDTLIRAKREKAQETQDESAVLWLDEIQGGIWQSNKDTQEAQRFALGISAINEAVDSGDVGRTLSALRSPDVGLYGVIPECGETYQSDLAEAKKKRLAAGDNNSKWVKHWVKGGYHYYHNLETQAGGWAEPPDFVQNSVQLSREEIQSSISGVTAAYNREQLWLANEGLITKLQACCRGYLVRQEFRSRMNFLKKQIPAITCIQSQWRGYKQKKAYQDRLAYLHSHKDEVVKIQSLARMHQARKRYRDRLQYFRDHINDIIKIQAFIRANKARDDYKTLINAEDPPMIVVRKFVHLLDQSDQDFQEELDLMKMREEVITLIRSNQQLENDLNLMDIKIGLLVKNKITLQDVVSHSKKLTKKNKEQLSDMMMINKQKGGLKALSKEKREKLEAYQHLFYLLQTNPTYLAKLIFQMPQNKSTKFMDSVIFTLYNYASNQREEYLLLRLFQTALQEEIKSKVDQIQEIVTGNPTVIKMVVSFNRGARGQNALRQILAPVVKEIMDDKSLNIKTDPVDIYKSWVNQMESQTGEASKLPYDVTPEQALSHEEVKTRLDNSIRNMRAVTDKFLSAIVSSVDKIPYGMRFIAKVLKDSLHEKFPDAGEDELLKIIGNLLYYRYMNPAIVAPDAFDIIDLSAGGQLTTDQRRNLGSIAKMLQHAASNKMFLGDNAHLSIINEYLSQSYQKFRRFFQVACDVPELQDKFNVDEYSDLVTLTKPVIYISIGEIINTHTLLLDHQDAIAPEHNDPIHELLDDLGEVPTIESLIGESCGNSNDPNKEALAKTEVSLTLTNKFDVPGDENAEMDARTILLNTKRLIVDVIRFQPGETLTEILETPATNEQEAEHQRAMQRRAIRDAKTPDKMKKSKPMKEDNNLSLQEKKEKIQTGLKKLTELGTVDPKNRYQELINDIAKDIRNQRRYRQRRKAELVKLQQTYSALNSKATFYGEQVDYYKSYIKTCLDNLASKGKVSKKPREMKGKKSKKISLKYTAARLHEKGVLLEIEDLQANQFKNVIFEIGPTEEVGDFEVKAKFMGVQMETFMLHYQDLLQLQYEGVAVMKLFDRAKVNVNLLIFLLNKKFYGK

Chain of IQGAP1, endogenous, human NSCLC tissues (P46940 2-1657 limits assumed): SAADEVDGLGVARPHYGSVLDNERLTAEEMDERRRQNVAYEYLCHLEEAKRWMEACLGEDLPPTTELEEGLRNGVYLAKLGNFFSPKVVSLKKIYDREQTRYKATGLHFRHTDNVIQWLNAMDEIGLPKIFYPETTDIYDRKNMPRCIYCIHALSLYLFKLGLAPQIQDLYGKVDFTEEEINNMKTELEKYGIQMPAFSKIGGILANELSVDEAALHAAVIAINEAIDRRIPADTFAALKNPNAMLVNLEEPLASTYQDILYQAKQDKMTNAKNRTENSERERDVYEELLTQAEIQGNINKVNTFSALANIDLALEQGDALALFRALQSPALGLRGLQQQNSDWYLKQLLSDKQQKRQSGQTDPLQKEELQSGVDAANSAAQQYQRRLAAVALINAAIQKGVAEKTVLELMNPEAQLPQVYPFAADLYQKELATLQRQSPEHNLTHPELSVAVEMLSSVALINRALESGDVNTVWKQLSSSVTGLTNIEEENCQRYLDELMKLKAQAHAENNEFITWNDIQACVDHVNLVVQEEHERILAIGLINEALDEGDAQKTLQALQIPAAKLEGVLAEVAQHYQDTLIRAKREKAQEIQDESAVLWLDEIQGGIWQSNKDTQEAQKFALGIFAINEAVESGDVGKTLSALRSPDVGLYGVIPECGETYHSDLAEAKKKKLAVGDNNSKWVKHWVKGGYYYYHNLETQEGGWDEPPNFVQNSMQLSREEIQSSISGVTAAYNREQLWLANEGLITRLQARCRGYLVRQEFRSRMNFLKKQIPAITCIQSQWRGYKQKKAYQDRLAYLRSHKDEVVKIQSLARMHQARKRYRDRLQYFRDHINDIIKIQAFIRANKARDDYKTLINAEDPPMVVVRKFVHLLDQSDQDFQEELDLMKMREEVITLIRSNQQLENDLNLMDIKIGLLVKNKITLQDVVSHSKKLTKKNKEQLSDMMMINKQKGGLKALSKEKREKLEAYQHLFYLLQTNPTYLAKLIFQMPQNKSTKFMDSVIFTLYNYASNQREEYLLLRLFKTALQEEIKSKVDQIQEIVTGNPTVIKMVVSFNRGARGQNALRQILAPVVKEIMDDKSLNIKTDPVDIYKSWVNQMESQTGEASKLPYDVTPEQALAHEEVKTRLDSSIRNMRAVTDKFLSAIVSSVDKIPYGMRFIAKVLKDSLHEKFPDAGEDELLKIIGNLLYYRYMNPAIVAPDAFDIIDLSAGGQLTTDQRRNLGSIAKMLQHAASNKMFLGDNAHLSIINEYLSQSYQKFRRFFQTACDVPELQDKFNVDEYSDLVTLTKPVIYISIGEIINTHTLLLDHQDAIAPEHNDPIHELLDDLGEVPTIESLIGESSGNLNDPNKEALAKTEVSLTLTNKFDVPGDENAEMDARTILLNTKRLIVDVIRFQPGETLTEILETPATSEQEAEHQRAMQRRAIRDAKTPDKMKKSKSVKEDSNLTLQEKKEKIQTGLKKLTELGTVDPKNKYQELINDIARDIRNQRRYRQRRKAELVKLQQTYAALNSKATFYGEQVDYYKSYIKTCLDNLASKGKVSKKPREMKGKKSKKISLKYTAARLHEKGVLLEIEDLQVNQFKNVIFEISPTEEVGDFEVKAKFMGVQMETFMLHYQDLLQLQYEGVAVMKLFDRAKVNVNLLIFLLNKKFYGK

B1: AhR (transfected; construct of the ALPHA and FRET assays with PKCθ or GLK not stated) (receptor)
chain: MNSSSANITYASRKRRKPVQKTVKPIPAEGIKSNPSKRHRDRLNTELDRLASLLPFPQDVINKLDKLSVLRLSVSYLRAKSFFDVALKSSPTERNGGQDNCRAANFREGLNLQEGEFLLQALNGFVLVVTTDALVFYASSTIQDYLGFQQSDVIHQSVYELIHTEDRAEFQRQLHWALNPSQCTESGQGIEEATGLPQTVVCYNPDQIPPENSPLMERCFICRLRCLLDNSSGFLAMNFQGKLKYLHGQKKKGKDGSILPPQLALFAIATPLQPPSILEIRTKNFIFRTKHKLDFTPIGCDAKGRIVLGYTEAELCTRGSGYQFIHAADMLYCAESHIRMIKTGESGMIVFRLLTKNNRWTWVQSNARLLYKNGRPDYIIVTQRPLTDEEGTEHLRKRNTKLPFMFTTGEAVLYEATNPFPAIMDPLPLRTKNGTSGKDSATTSTLSKDSLNPSSLLAAMMQQDESIYLYPASSTSSTAPFENNFFNESMNECRNWQDNTAPMGNDTILKHEQIDQPQDVNSFAGGHPGLFQDSKNSDLYSIMKNLGIDFEDIRHMQNEKFFRNDFSGEVDFRDIDLTDEILTYVQDSLSKSPFIPSDYQQQQSLALNSSCMVQEHLHLEQQQQHHQKQVVVEPQQQLCQKMKHMQVNGMFENWNSNQFVPFNCPQQDPQQYNVFTDLHGISQEFPYKSEMDSMPYTQNFISCNQPVLPQHSKCTELDYPMGSFEPSPYPTTSSLEDFVTCLQLPENQKHGLNPQSAIITPQTCYAGAVSMYQCQPEPQHTHVGQMQYNPVLPGQQAFLNKFQNGVLNETYPAELNNINNTQTTTHLQPLHHPSEARPFPDLTSSGFL
For B1, the binding result in experiment [1] is recorded as “no binding”.

B2: RORγt, endogenous, human peripheral blood T cells (SLE and RA patients) (receptor, UniProt P51449-2 1-497, looked up)
chain: MRTQIEVIPCKICGDKSSGIHYGVITCEGCKGFFRRSQRCNAAYSCTRQQNCPIDRTSRNRCQHCRLQKCLALGMSRDAVKFGRMSKKQRDSLHAEVQKQLQQRQQQQQEPVVKTPPAGAQGADTLTYTLGLPDGQLPLGSSPDLPEASACPPGLLKASGSGPSYSNNLAKAGLNGASCHLEYSPERGKAEGRESFYSTGSQLTPDRCGLRFEEHRHPGLGELGQGPDSYGSPSFRSTPEAPYASLTEIEHLVQSVCKSYRETCQLRLEDLLRQRSNIFSREEVTGYQRKSMWEMWERCAHHLTEAIQYVVEFAKRLSGFMELCQNDQIVLLKAGAMEVVLVRMCRAYNADNRTVFFEGKYGGMELFRALGCSELISSIFDFSHSLSALHFSEDEIALYTALVLINAHRPGLQEKRKVEQLQYNLELAFHHHLCKTHRQSILAKLPPKGKLRSLCSQHVERLQIFQHLHPIVVQAAFPPLYKELFSTETESPVGLSK
As for B2, the binding result in experiment [2] was “binds”.

B3: GLK, endogenous, human NSCLC tissues (enzyme, UniProt Q8IVH8 1-894, looked up)
chain: MNPGFDLSRRNPQEDFELIQRIGSGTYGDVYKARNVNTGELAAIKVIKLEPGEDFAVVQQEIIMMKDCKHPNIVAYFGSYLRRDKLWICMEFCGGGSLQDIYHVTGPLSELQIAYVSRETLQGLYYLHSKGKMHRDIKGANILLTDNGHVKLADFGVSAQITATIAKRKSFIGTPYWMAPEVAAVERKGGYNQLCDLWAVGITAIELAELQPPMFDLHPMRALFLMTKSNFQPPKLKDKMKWSNSFHHFVKMALTKNPKKRPTAEKLLQHPFVTQHLTRSLAIELLDKVNNPDHSTYHDFDDDDPEPLVAVPHRIHSTSRNVREEKTRSEITFGQVKFDPPLRKETEPHHELPDSDGFLDSSEEIYYTARSNLDLQLEYGQGHQGGYFLGANKSLLKSVEEELHQRGHVAHLEDDEGDDDESKHSTLKAKIPPPLPPKPKSIFIPQEMHSTEDENQGTIKRCPMSGSPAKPSQVPPRPPPPRLPPHKPVALGNGMSSFQLNGERDGSLCQQQNEHRGTNLSRKEKKDVPKPISNGLPPTPKVHMGACFSKVFNGCPLKIHCASSWINPDTRDQYLIFGAEEGIYTLNLNELHETSMEQLFPRRCTWLYVMNNCLLSISGKASQLYSHNLPGLFDYARQMQKLPVAIPAHKLPDRILPRKFSVSAKIPETKWCQKCCVVRNPYTGHKYLCGALQTSIVLLEWVEPMQKFMLIKHIDFPIPCPLRMFEMLVVPEQEYPLVCVGVSRGRDFNQVVRFETVNPNSTSSWFTESDTPQTNVTHVTQLERDTILVCLDCCIKIVNLQGRLKSSRKLSSELTFDFQIESIVCLQDSVLAFWKHGMQGRSFRSNEVTQEISDSTRIFRLLGSDRVVVLESRPTDNPTANSNLYILAGHENSY
As to B3, the binding result in experiment [3] was “binds”.

B4: GLK, endogenous, lung tissues of mice in the LLC/luc metastatic lung cancer model (enzyme)
chain: not shown
Take B4: the binding result in experiment [4] is on record as “binds”.
